Laboratory results taken from article PMC7374964 (BMC Biology, 2020).

Key:
Details in all cases: one partner purified
[1] = target: T1, HIV-1 BaL Env on free pseudovirus particles (HIV-1 BaL (Env clone not named), UniProt Q2MKA8, strain); assay: fluorescence correlation spectroscopy (FCS)
T1 construct: copies: 3 + 3

[2] = target: T2, HIV-1 JRFL Env on free pseudovirus particles (HIV-1 JRFL, UniProt Q75760, strain); assay: fluorescence correlation spectroscopy (FCS)
T2 construct: copies: 3 + 3

[3] = target: T3, HIV-1 BaL Env on pseudovirus particles treated with the CD4 mimetic peptide M48U1 (HIV-1 BaL (Env clone not named), UniProt Q2MKA8, strain); assay: fluorescence correlation spectroscopy (FCS)
T3 construct: source: HIV-1 BaL pseudoviruses [72] treated for 90 min at 37 °C with 200 ug/ml of M48U1; copies: 3 + 3 +

[4] = target: T4, HIV-1 JRFL Env on pseudovirus particles treated with the CD4 mimetic peptide M48U1 (HIV-1 JRFL, UniProt Q75760, strain); assay: fluorescence correlation spectroscopy (FCS)
T4 construct: copies: 3 + 3 +

[5] = target: T5, HIV-1 ADA Env on CEM-NKR cells infected with the Nef- and Vpu-defective virus (NL4.3 GFP ADA/Nef-Vpu-), with … (HIV-1 ADA (Env clone not named); Homo …, UniProt Q6TAN8;P01730, strain); assay: flow cytometry on cells
T5 construct: also called ADA/N-U- infected cells; pNL43/ADA/N-U- infected CEM-NKR target cells; copies: 3 + 3 +

Measured: binding result

B1: mAb X5 (antibody, V domains shown)
VH: VQLLEQSGAEVKKPGSSVQVSCKASGGTFSMYGFNWVRQAPGHGLEWMGGIIPIFGTSNYAQKFRGRVTFTADQATSTAYMELTNLRSDDTAVYYCARDFGPDWEDGDSYDGSGRGFFDFWGQGTLVTVSS
VL: ELVLTQSPGTLSLSAGERATLSCRASQSVSSGSLAWYQQKPGQAPRLLIYGASTRATGIPDRFSGSGSGTDFTLTIGRLEPEDLAVYYCQQYGTSPYTFGQGTKLEIK
notes: source: generated in house [15]
binds: [1] | [2] | [3] | [4] | [5]
